# According to the DeepSol protein solubility set:
# Assay: soluble on expression in E. coli; label from the status in PepcDB or PDB records
row,Sequence,soluble on expression in E. coli
1,GPGSMHPGLPRAFPDTEWQTVADIFRRRAPVSFLAPNSSASATADPAAAAEAWVQQEIGYYEANYTTVEDLNVCVTTFNVGCKKPVLPLTSLACLTSGGGGADGAPVRPTDLIVVGLQEVDMSATALFKQETEASAPWVAGLNAAIGASRCSSTAASSSSGAGASPYYAFPPKQLVGLLLCVFIRRPLLSAVSESSTATVATGALGSMGNKGAVGFHLVLHRTSICIITAHLAAGQSNVSKRNEDINTILKSMDFNAARRAEMQISASASMPMDESVFLELHPRDHDIIIVAGDLNYRLRLPYETAVHLANAGQFSELLQYDELATEMKSPHTPWLNFINFTPTHMPTYRFDIGTDAYDTSEKRRVPSYTDRICMWSRRKSMESRVRLDRLSALMEVRSSDHKPVQALARIPISVEVPAQKAQVISSLREKVAAVGLAQASSAKISLSTSKVNFQAQSFHHCGAQETVTVQNSGDCVAVVRVVRQREGDYSEGTWLRATPLELAILPGESQDVVIETAIDPRCMTWLAAWSPYQGRGRVSLTSVLLFCCRNGPVQAVECQCLLSPSVFGNGLDSIALLQDKPCVEAYAQKADFEEVVRQVRPHVPKELWYLAHVIAQHPREGGLFTRSTDKDVCCRIMELLDTKNAPLPAGTDVHCAAECLLAFLKNLLEPVVPYAQYTTALAAGRAKGKAPLQFLRQLPTMHANVWIYVMSLLNYLLRPVHSCDNELDANFLAHIFSAVLIVRPTNAQGAIPARLQQGGGVDQQVRQQLQQESDDALALVAYFLSTPPSMLAGVE,not soluble
2,GPGSMIKIHTEKDFIKMRAAGKLAAETLDFITDHVKPNVTTNSLNDLCHNFITSHNAIPAPLNYKGFPKSICTSINHVVCHGIPNDKPLKNGDIVNIDVTVILDGWYGDTSRMYYVGDVAIKPKRLIQVTYDAMMKGIEVVRPGAKLGDIGYAIQSYAEKHNYSVVRDYTGHGIGRVFHDKPSILNYGRNGTGLTLKEGMFFTVEPMINAGNYDTILSKLDGWTVTTRDKSLSAQFEHTIGVTKDGFEIFTLSPKKLDYPPY,soluble
3,GPGSMIRRYSLAIGGSCCCPAPRLISTEAFVSSVEKVQHQLGTSERKQDLILHGRQLFENESLDDIHSAWTPVVAGKICHAATQLRISPTKGQPFGAVVGLSLTPEAVGVMDAPSLARIAHSCLILRSPHLYEVLFTYIRRLITLAATLDTVSCAVLINAYGRAQVHHEEFYKVICDRAAVVMKDPRTFVAHTANVAHALSRVRYFHRDLFLTLRDQAERQASQGPPLVAVTILDGFAEIGFVDDALFTALEQRLLGELAELPAPLMASLVSCLAKAGRAPSPLFTACGERIVAIGNTFDSNSIAKTCDAFYRANVPAEEVLGTLAERACKVVADFRPDEINQTLSSLASFDLFDGELFPLLASRFVSIVKQGGYVSPVDAAGILTSFAVVQERSDELVHVCTQLLSVHRDALDGITLLQTLWACVTLNVRNEAQQNLLQCLSSGAVVLPDEASAEKESKVVLERLLFVKKAYGLQ,not soluble
4,GPGSMLGSPLFPVAMDSFFDEDECERLGVWEDPRCLRAAEYTQCVATIRALIEQYGVAAAPLHTVKDAAQFLRFEASSAVSHPPMRESAVSYTVKSYGEASKKCVSEANNIVLSSLCMNDACVAGNAADGTDVALEKVFIVCEGFLIFGYPELCNMFDFFVFVHSDNETACLRRFFRGSRRKKRKPQGGNCDRILRMRTSRVNAELWSSEGAAANKTLSPSFSSVLPHLKYMPPQPSSPNDYQGFWLQSEYKELPPPMPFGMSGLKAPPYDWLEVKDLQYVKQMLHQWANASCVDDVEGVLGRYFEFRYWFYYEVLFYHYQLRGISEENVTTACQAKGTTKTSPSQSVLHIKNDASVSCVMLDSQLLALAQQVSGDLINGEGEVRLLLGWN,not soluble
5,GPGSMLHRSLACFAVPADRKAFMELVKTLRYRTEAPISDCSAALKETDGDMDAAMQVLRKRGAARAMKKGDRVTEHGFVVSCVGSTPQSGAAIVTICSETDFAARNEHFQRVCMQVRDQLCKLMDATNGAVLANPEEAVKHLSDVMAEELRVAIAVLGENMRVRSIAPLVPAPHVSERLLIGSYTHGSLNVDNVGRIVGLVALSQVRENEVVPKDVLTSVGRHFVATSGAEGNYAHQNFFGSETETVGKWLKQRGLKFSSSLVQEFGKEPVVHTAPEPHR,not soluble
6,GPGSMLSRIKKQQAETRDAAGQSHSSGGGPSTASSEPVAILRLKKDLDNLDGIRSTIDIPDPQNMLRMKVTVRPPYPSIWQGGIFEFLLEFREDYPYEGPRVRYLGPYRIWHPNIEGDEYMEGEGGLRGDVKNTWGVCLSFQTEWKPTMSLRDIIIMIELLFQDPNPDDPLHGTAKQAAQMMKDNPAKFRDKARRWMRGGYIE,soluble
7,GPGSMNCVQQGKVNVIADNLIPDGKMTEMIIVMKSSVSARANGECLPCDAAQLCEDLTEDIIPYVDNHYRTDADRDNRAIAGLYMGSIQASRLCITRHDLFAYPGMFSGFLSSNWNGIGTDSDHIEALRCDPAAFQAAMKVLFRCIGDDNTYRAAFEADNALLAELGAACERRIYAGSHSWQVWRQAAADFPPMLFKDLSFFPRH,not soluble
8,GPGSMPASASTRTVGDSSKNASTSSVTNAVKDPNVTLSRADVEAAFAFFDLHNHKCLKPATLKERLSAFYPNMTSSEYKFLLDEASGAPFTVDTLWNIIDNFNTTRTAMPPAVAGSLRFDPIREAFRIYDPQGSGSVDVVVLADIMKTIGFGDLSPNELTLLIRPADFDNDGKISLEDFMNFLSNHR,soluble
9,GPGSMPPPAPPALEKKTAAGVEVDLTKMVLDTSSFLRASAQRPSMRYPSRASVSNSAFISAQEYDDLRARYSQAKRELLKVSDIQKDLDFARFELTRSQEEMKLLRASNHNLKNEVEEYVQRAEKEHKARMSLEAKMSAEGATRTEEIEFLKKTIDELRAENAKRLDYMTQQQEDEFQARLQSMREELAGAAEELARLTAEAAQAQKARELSESKLTAALTDLEKSRAVVDDCKARIDALQKECHALEQQHRDFVQQQERQNAAYLEEQKALNEERVHQVAESKNAAIAEMQEELHLWKEKTKTTAEELAAARHAASQLQDDVKQLTADRAKEVRRLAEEHRLALCELQLQMEAAIREARGSKTSLEEEAQSLRRQLAQVSTELSTVAGVLAQRERQLAKAEEELLRTKDRCVAAEQENAQLASDAQLNAEAADEAAARVERLMRQNSDMEEEFSKDLREAKDRIRTLEATLMQSKGELSALRKEQIKSADDGLAATRDLRAQAEALMEECTALKAQAGERRRLEEMARDYCQRFEAERTKVGTLEAELSAAVGRCTAVEAKLEELSRRVISQAVSRSPMQTLHPNATAASLSCHGKHRSVSSGQSYAPTGGSSMKRARTEDARVFAISGFDGNDVLLAVKQLPNVAIAECKSNMPVPSNLTHLITNGQLTIKLLTALVRGCWVLPESYVVDSLKEQTWLREEDYGFQHEEPPLLKKRIALTEAFMACKHYSTASLLLKEGGAILVDDPEQADILLCTNAEARSTQNGWNWEKMVEIIYPLKIQ,soluble
10,GPGSMQISPPFCGCLSEMYARSLVKQGAFSCFRSCVRVGSVAIIGGEAHMFKQLYKRDEKLRLYRSLIKGASRFPLRSRRDIVTEEVRSSFRHPLNDSLTNEEVDRKLVLGWERAEAIKTYAQNMYWFHSRDEVSKEMMHHSLERDRQRVREMERCNTVGAAPRKTPEVTEFKSSMYNVHPDYYEKIGQKPLTHTRDIWRARGQYGSDVGGPRQKFFVRRFKALFPQGW,not soluble
11,GPGSMRALTFRSSLCAGRTAVGAMCFGRLWASSTSATEGSEKQNVTEDSETVSVAPVSPEAYAKLEKELSDAKERIAELKKEVLYRAADAENARRIGSEDVTKAKAYGITSFGKDMLDVVDTLERGLEAITKLPQAEVEGHKTLSSIHTGIKLSLKLLLNNLAKHGIEKLDVAVGAKFDPNFHDALLKVPPTAEAPPGHISTVLKTGYKIQDRVLRASQVGVASDD,not soluble
12,GPGSMRGKRFATPTGQPGMRQGGYTQLHAVSASTSPGRRPTAKHCAPSASQKELFTSQALSRPRPTEAHALSSSTPERRFQAVQRSSTQSSMPSTSVHHMLNELVDLSHSIAALLEQGQVLSLTAAPSAADRQQEASLKTQEIERIVRRVEAHFVDRIQSLETLNASLSEEVRQLRGALATQRTNGAEGRANVVQDIRGGDLQEDSKTLDACERASWDEPGNGAASSEVEHLRRVLMAEKRQRLRVEEQTQSLTEQHAKVVGTLERRLKKQEEQLYDLIAAIDRGYGGGSVTTSASPTRCTERGSSHRLPTPRHLLRQQLAQHQQTQRALQQYKENLRLEPPSPAGSDEVSATMKELGLDDVRRTLELIRSSKPLTVQEHHHDQEETHTAPAVCSPPHTARDGPAVVHSPRVCSQVPPPAADRAACTSGTEVDEITAFLENITKELESLDSQ,soluble
13,GPGSMRLVDLSLPLYDGMPVYDGDPPVHVTKVCTREKDGWEVRHLQMGSHTGTHVDAPAHMHEDGSNLDEVPLTRFCGPAVVVKVADSSFPPNKGLLFYEAVPADCVPRIVAANAPFVGGPLEEKAERLLLGCGIITYTGLVNVEQLIGESFTFYGLPLRIRGGDGSPVRAVAVMDDK,soluble
14,GPGSMSAETLACTYAALMLSDAGLPTSAENIAAAVKAAGVEMRPTLPIIFARFLEKKSVETLMAAAAAQAPTAASAPSPAAGAASAAAAGGKVEDKKKDEPEEEGDDDMGFGLFD,soluble
15,GPGSMSNSGCGLPGDVDPDLPLTPDGVTYHVACSSERLADRIILVGDPDRVKMVSTYLDAGSIVYEASHREIKVVTGAYHGVPVTVLSTGMGTDNVEIVMNEVHILKEYDTQKRRWRARVGDDTPADPLETPFDPSRVKLIRVGTCGTPNDAVQIGCLAITRYAVGMDNTCQYYDAPAVNHTVDVKEVLAKVQATSLGKVQVYATKAAPAITQGLVDACTALNRKVGVSEQQPYYVGTTCSGSGFYGCQGRSVGRFRGHLTVPHLTEELGDLRFNVSEGEQRVANIEMENSALCYLSNLLGYQAGTVCVVIARRSRTNRAFATPEQLAKGLSHAITIALETLIKE,not soluble
16,GPGSMSSSPNPMGAGTASATPKSTGGPEASPGSVRRSTLYAVLNVSHTATLEEITAAYRKLALVYHPDRPNGLQWKFQEIQRAYEVLSQKDARAKYDILLRGKLAVKNFKRPPPLESVLQPVYALLADGAFYEFEAASSKLKCSFHYGDGIQFNGDCGSFIGLAGDGFIYWTISGRGFASRLCKAGSTFALSSVRVMYRSNMGLAKMPLKRSSLHSSHTCRPAGSSGDKRAVRGSTGDAGCSERAKSTTGARAAKMSEADRIKKALLNKERSRNLKRRMETLKEEEIEARNSLQQDLWGQFSSLHTTAEVAFRCTLQGVAVPVEMALWMGYKSPEEVMLRSSGACSSLFIAEQVSLQTSSLWVDPLQSDYFNDDEMLREGCDGNKEDRKHCTSNGRDVTARHKPDSADSSPCSSQSSPASDGAPDGDACRGRSATASGTHSPILHRLNNGATAVTGASDGAEVAKKE,not soluble
17,GPGSMSSTQTTSVFFTDVPLFVEERSLRKHFESVGHITDFRLLGPPVGKDFRYGFAEYLDSTSAEEAIARLNGTSFGGRPMKVMSAAATRGRKRQRQQNASHQQQPAPRGGMTFPRGYTDPVLGRDDTSIFECLQGMQQSDAYEAVEQLRVLVLERKNEARKLLENNPALRLAVVMILQHAGRLPFGPLPPEAIQHGGIRVDAPVPAAPAEGEGEKVEPPREQNDEIIEILSKLSEEEVERIVSMTDEDLNRIPDVSQRQQIGVLRERLLELAADLE,soluble
18,GPGSMSYHGPNREGLGEDLEEAEEAFIDLEDPNIEILDEAALPEEDGDDASDVVDNHAGMDVQDRGNEEEGEGLHLGVEVEDLNAAPDYEPEHDDAFATFVAPAKKPLHAIAVHPQNERIFAVGGEGEEVYILEMDHAGKEPALKATLTGHTDTVSLLSFSPNGQWLASGSLDSSVAVWSTETWERKHTLGDLYGEIMTLLWHPSSLILAAGADDAQAAMWNVVKGTLIMYFVGHRGAVTCTAWSPDVKKLVTGSSDGTVAVFNPKTGDQELCISKDLSPDNAGITALQFVNADQCVVGCEDGTLHVISLRSGKVATHFEDLHEQAIESLAINRSSLLLLTASCDCRVIVWNVADFSPRATVEVGESVIPALWSHSNLIAAGCSDGNIRVWDGRSSAQDPLALLMGHRRMVLGLVTTSTVLASTSDDGTAKFYRFAETFR,soluble
